Experimental data reported in PMC5228590.

Target: vimentin (mouse (endogenous in MC-3T3 and in primary calvarial osteoblasts of C57/B6J mice)) (UniProt P20152)
Experiment: co-IP

Chain of vimentin (mouse (endogenous in MC-3T3 and in primary calvarial osteoblasts of C57/B6J mice)) (P20152 whole entry): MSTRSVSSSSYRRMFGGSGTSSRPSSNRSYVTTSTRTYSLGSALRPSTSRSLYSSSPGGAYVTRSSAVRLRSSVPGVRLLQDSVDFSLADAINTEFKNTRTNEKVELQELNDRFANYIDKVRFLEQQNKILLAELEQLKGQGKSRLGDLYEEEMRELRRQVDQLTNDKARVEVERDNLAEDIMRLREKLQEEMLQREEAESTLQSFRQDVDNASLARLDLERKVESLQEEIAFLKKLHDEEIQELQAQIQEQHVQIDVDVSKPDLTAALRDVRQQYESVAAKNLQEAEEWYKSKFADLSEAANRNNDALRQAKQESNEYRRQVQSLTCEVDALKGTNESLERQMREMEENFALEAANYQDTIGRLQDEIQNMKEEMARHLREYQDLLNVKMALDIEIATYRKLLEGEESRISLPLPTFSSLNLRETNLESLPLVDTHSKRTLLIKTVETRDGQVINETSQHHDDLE

fold increase of the association with IGF-I: 6.7 fold
percent reduction of the association with the PKCζ pseudosubstrate inhibitor: 62%
Substance: receptor protein tyrosine phosphatase β, B9EKR1 25-2312
